B1: VH:VL chains; a variant is named by its letters at X, in order (parent)
chain 1: QVQLVQSGAEVKKPGASVKVSCKASGYTFTDYXMHWVRQAPGQGLEWMGXVNPNXXXTTYNQKFEGRVTMTTDTSTSTAYMELRSLRSDDTAVYYCARXNXLDXWGQGTTVTVSS
chain 2: DIQMTQSPSSLSASVGDRVTITCSVSSSVSSIYLHWYQQKPGKAPKLLIYSTSNLASGVPSRFSGSGSGTDFTLTISSLQPEDFATYYCQVYSGYPLTFGGGTKVEIK

Variants of: B1
Test: yeast display scFab, FACS + sequencing
Outline: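 Heavy-chain CDR mutant scFab yeast surface library, FACS-sorted after labelling with biotinylated ovalbumin (260 μg/mL in PBSB, 3 h, room temperature) or soluble membrane proteins (130 μg/mL, 20 min on ice), plus anti-Myc. Gates collected the top 25% and bottom 10% of binders, and samples from two replicates were deep sequenced. Non-specific binding call: a sequence was positive if found in ≥3 of 4 positive samples (membrane protein and ovalbumin pooled) and no negatives, and negative by the converse rule.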

Variant	non-specific binding call
FARGGSAD	no binding
YARADSSV	no binding
YARADSSD	no binding
DAGTGSWD	no binding
DAKEGSLD	no binding
AARADDWV	no binding
AARADDWD	no binding
DATGGDVA	no binding
DATGGDVD	no binding
DATGGDVY	no binding
DATGGDVF	no binding
DATGGDVV	no binding
SARGGYWY	binds
DARENAGY	no binding
AATTDSGV	no binding
AATTDSGD	no binding
DATGGDAD	no binding
YATGDDGV	no binding
VAKADALD	no binding
YATGGYAV	no binding
SAREGDWV	no binding
AARADAGA	no binding
VAKENAVA	no binding

Variant	non-specific binding call
YARGGAGA	no binding
DATGGDGA	no binding
DATGGDGY	no binding
DATGGDGS	no binding
DATGGDGV	no binding
FARAGDWV	binds
VATRAVGA	binds
DAKENAGD	no binding
FARKGDGV	no binding
VATGDDVY	no binding
VATGDDVA	no binding
VATGDDVD	no binding
YAREGSGA	binds
DAKEGDLV	no binding
VATGGYAV	no binding
VARGGSVD	no binding
DARGGSAD	no binding
SATKTVVV	binds
FARKGSGA	binds
YAKRGSWA	binds
SARTDFWF chain 1 K19N	binds
AARADAVV	no binding
AARADAVA	no binding

Variant	non-specific binding call
AARADAVY	no binding
YARGGDLD	no binding
YARRGSGV	binds
YARADSGD	no binding
DARGGAGA	no binding
FARKSYGA	binds
FATKGAWV	binds
YAKGDDAS	no binding
VATRGYLV	binds
DARGGDAA	no binding
YARGTAVD	binds
YARADDAS	no binding
VATGDDWV	no binding
FARAAALD	binds
AATTDDAV	no binding
DAKEGAAA	no binding
SARADSGV	no binding
VATGSSGA	no binding
FARGASGV	binds
DARGGSSA	no binding
DARGGSSY	no binding
DARGGSSS	no binding
DARGGSSV	no binding

Variant	non-specific binding call
DARRGSGD	no binding
DAKEGDVV	no binding
VATKGFVV	no binding
SAGTGSWD	no binding
YARTGFGA	binds
DARETFLD	no binding
DATGNVWS	binds
VARKGVGV	binds
SAREGALD	no binding
VAREDDLS	no binding
YARETDGA	no binding
YARRGSLD	binds
YARRGDGA	binds
AARADSGY	no binding
AARADSGD	no binding
FAGTGSWD	no binding
YATGDDVA	no binding
VAREDDWA	no binding
VAREGDLA	no binding
DAKEGDGV	no binding
AAKRGSWV	no binding
VAGTGSSV	no binding
VAGTGSSA	no binding

Variant	non-specific binding call
VAGTGSSD	no binding
YARADSLD	no binding
FARENFLA chain 1 V51A	binds
YATEAFSD	binds
DATGGAAA	no binding
DATGGSSV	no binding
DATGGSSS	no binding
DATGGSSY	no binding
DATGGSSA	no binding
AARADSLS	no binding
YARRDVGA	binds
DATGGFGV	no binding
YATRGAAA	binds
FAKTDAGF chain 1 G108D	binds
VAKADDWF	no binding
DAKEGSSA	no binding
YAKRDAGD	no binding
FARGGDAV	no binding
YAKGDYSV	no binding
FAKEGDGD	no binding

Source: the emibetuzumab library of Makowski et al. (2022)
